# Laboratory results from patent WO2009030872A1 (dated 2009).
# B1: human monoclonal antibody clone 1:7 (antibody, V domains shown)
# VH: VQLLEQSGAEVKKPGSSVKVSCQVFGDTFSRYTIQWLRQAPGQGPEWMGNIIPVYNTPNYAQKFQGRLSITADDSTSTAYMELSSLRSEDTAVYFCARVVIPNAIRHTMGYYFDYWGQGTLVTVSS
# VL: AELTQSPATLSLSPGERATLSCRASQSVNKYLAWYQQKPGQAPRLLIYDASNRATGIPARFSGSGSGTDFTLTISNLEPEDFAVYYCQQRSDWVTFGGGTKVEIK
# notes: also called mAb 1:7
# B2: human monoclonal antibody clone L1 (antibody, V domains shown)
# VH: EVQLLESGGGVVQPGRSLRLSCAASGFTFSAYGMHWVRQAPGKGLEWVAGIWFDGSNQYYSDSVKGRFTVSRDNSRNTLFLQMNSLRPEDTAVYYCATEVLFGSIKGRYYLENWGQGTLVTVSS
# VL: AELTQSPGTLSLSVGERATLSCRASQNIYSGYLGWYQQKPGQPPRLLIYGASNRATGIPDRFSGSGSGTDFTLTISRLESEDFAVYYCQQYGSPPYTFGQGTKVEIK
# notes: also called mAb L1; Ll
# B3: human monoclonal antibody clone A8 (antibody, V domains shown)
# VH: EVQLLESGPGLVKPSGTLSLTCTVSGGSIRSSHWWSWVRQPPGKGLEWIGEVFFSGSTIYNPSLNDRVFMSVDKSKDQVSLRLSSVTAADTAVYYCARSPIKMNQGRMMLDAFDIWGQGTLVIVSS
# VL: AELTQSPSSLSAFVGDRVTITCRASQSISRNLNWYQQKPGTAPKVLIYAASSLQSGVPSRFSGSGSGTDFTLTITSLQPEDFATYYCQQSYTTPRTFGQGTKVEVK
# notes: also called mAb A8
# Legend:
# [1] = biological target: T1, E1E2 of HCV genotype 1a isolate H77c (hepatitis C virus genotype 1a, strain …, UniProt P27958 386-729; P27958 193-382); test: inferred from GNA capture ELISA binding curve by non-linear regression
# [2] = biological target: T1, E1E2 of HCV genotype 1a isolate H77c; test: GNA capture ELISA on E1E2 of H77c
# [3] = biological target: E1E2 of HCV isolate H77c with E2 substitution D535A (hepatitis C virus genotype 1a, isolate …, UniProt P27958 386-729; P27958 193-382); test: GNA capture ELISA on alanine-substituted H77c E1E2
# [4] = biological target: E1E2 of HCV isolate H77c with E2 substitution G523A (hepatitis C virus genotype 1a, isolate …, UniProt P27958 386-729; P27958 193-382); test: GNA capture ELISA on alanine-substituted H77c E1E2
# [5] = biological target: E1E2 of HCV isolate H77c with E2 substitution W529A (hepatitis C virus genotype 1a, isolate …, UniProt P27958 386-729; P27958 193-382); test: GNA capture ELISA on alanine-substituted H77c E1E2
# [6] = biological target: E1E2 of HCV isolate H77c with E2 substitution G530A (hepatitis C virus genotype 1a, isolate …, UniProt P27958 386-729; P27958 193-382); test: GNA capture ELISA on alanine-substituted H77c E1E2
# [7] = biological target: E1E2 of HCV genotype 2a isolate JFH-1 (hepatitis C virus genotype 2a, isolate …); test: cell-based or functional assay
Binder,Kd [1],EC50 [2],binding result [3],binding result [4],binding result [5],binding result [6],IC50 of neutralization of HCVcc JFH-1 (density of E2 after western blotting) [7]
B1,~4.1 nM,0.67 µg/mL,no binding,no binding,no binding,no binding,~0.06 µg/mL
B2,~15 nM,2.31 µg/mL,–,–,–,–,–
B3,~2.7 nM,0.44 µg/mL,no binding,no binding,no binding,no binding,~0.56 µg/mL
